Laboratory results as given in patent US10881612B2, “Cationic liposomes for cancer immunotherapy” (The Methodist Hospital, priority 2015, dated 2021).

B1: IL-12: Recombinant mouse IL-12 purchased from R&D Systems (protein, UniProt P43431 23-215; P43432 23-335, looked up)
Interleukin-12 subunit alpha: RVIPVSGPARCLSQSRNLLKTTDDMVKTAREKLKHYSCTAEDIDHEDITRDQTSTLKTCLPLELHKNESCLATRETSSTTRGSCLPPQKTSLMMTLCLGSIYEDLKMYQTEFQAINAALQNHNHQQIILDKGMLVAIDELMQSLNHNGETLRQKPPVGEADPYRVKMKLCILLHAFSTRVVTINRVMGYLSSA
Interleukin-12 subunit beta: MWELEKDVYVVEVDWTPDAPGETVNLTCDTPEEDDITWTSDQRHGVIGSGKTLTITVKEFLDAGQYTCHKGGETLSHSHLLLHKKENGIWSTEILKNFKNKTFLKCEAPNYSGRFTCSWLVQRNMDLKFNIKSSSSSPDSRAVTCGMASLSAEKVTLDQRDYEKYSVSCQEDVTCPTAEETLPIELALEARQQNKYENYSTSFFIRDIIKPDPPKNLQMKPLKNSQVEVSWEYPDSWSTPHSYFSLKFFVRIQRKKEKMKETEEGCNQKGAFLVEKTSTEVQCKGGNVCVQAQDRYYNSSCSKWACVPCRVRS

Legend:
4T1 tumors [1] = assay: In vivo tumor cytotoxicity (H&E and TUNEL staining) after intratumoral injection; conditions: 24 hours after intratumoral injection
Description: (§1) The cytotoxicity of cationic liposomes to 4T1 breast cancer cells was evaluated by flow cytometry using propodium iodide (PI). Using a 24 well plate format, cells were treated with 4 μg control or MPL liposomes, or free MPL (250 ng) for 24 hours. Cells were released using trypsin and treated with PI according to manufacturer's protocol (Invitrogen). Samples were analyzed using a LSR II™ Flow Cytometer (BD Biosciences, Mountain View, Calif., USA) equipped with […] ™ software (2007). In vivo tumor cytotoxicity of cationic liposomes was evaluated in BALB/c mice bearing 200 mm^3 4T1 tumors 24 hours following intratumoral injection of liposomes (50 μL; 1 mg lipid). […]
(§2) The cytotoxicity of cationic liposomes to 4T1 breast cancer cells was evaluated by flow cytometry using propidium iodide (PI). […] Samples were analyzed using a LSR II® Flow Cytometer (BD Biosciences. Mountain View, Calif., USA) equipped with […] ™ software (2007). In vivo tumor cytotoxicity of cationic liposomes was evaluated in BALB/c mice bearing 200 mm^3 4T1 tumors 24 hr following intratumoral injection of liposomes (50 μL; 1 mg lipid). Excised tumors were embedded in paraffin, sectioned, and stained with hematoxylin/eosin, or analyzed for apoptosis using the DeadEnd® Fluorometric TUNEL System (Promega Corp., Madison. Wis., USA).

4T1 breast cancer cells = assay: Cytotoxicity of cationic liposomes by propidium iodide flow cytometry; type: cell-based, mouse; conditions: 4T1 cells, 4 μg/mL liposomes or free MPL (250 ng), 24 hours, n=3
Description: as §1, §2

[2] = system: 4T1 orthotopic breast tumors; assay: Therapeutic efficacy study, intratumoral injection; type: in vivo, BALB/c mice; conditions: intratumoral injection once a week for two weeks
Description: Breast cancer tumors were established in BALB/c mice by intramammary injection of 1×10^5 4T1-luciferase cells. When tumors reached a median size of 100-200 mm^3, mice were administered intratumoral injections as follows: PBS control, Free MPL (6.25 μg), control liposomes (50 μL; 1 mg lipid); MPL liposomes (50 μL), and IL-12 (5 μg) with/without MPL liposomes. Tumor growth was monitored by caliper measurements three times per week and by luciferase expression measured weekly using the Xenogen IVIS-200 System (Perkin Elmer Inc., Waltham, Mass., USA) following intra-peritoneal injection of 75 mg/kg RediJect D-Luciferin (Perkin Elmer Inc.), 24-26 days after initiation of tumor growth, mice were sacrificed, blood was collected by retro-orbital bleeding, and tumor and spleen were collected for immunohistochemical, weight, and size analysis. Dual tumors were grown in naïve mice using the same experimental conditions with intratumoral injection of particles limited to a single tumor.
Breast cancer tumors were established in BALB/c mice by intramammary injection of 1×10^5 4T1-luciferase cells. When tumors reached a median size of 100-200 mm^3, mice were administered intratumoral injections as follows: PBS control. Free MPL (6.25 μg), control liposomes (50 μL; 1 mg lipid): MPL liposomes (50 μL), and IL-12 (5 μg) with/without MPL liposomes. […]

serum cytokines = assay: Multiplex bead ELISA of serum cytokines; type: in vivo, BALB/c mice; conditions: 5 hours after intratumoral injection
Description: Serum cytokines were analyzed 5 hours after intratumoral injection of liposomes using a mouse cytokine magnetic 10-plex panel kit (Invitrogen, Carlsbad, Calif., USA) for the Luminex® platform. Following retro-orbital eye bleed, plasma was collected by centrifugation at 1500 g for 10 minutes at 4° C. and stored at −80° C. Plates were prepared using 25 μL/well of the antibody-bound head. After 2 washes, 50 μL serum and 50 μL assay diluent (or 100 μL standard) were added and plates were incubated at room temperature for 2 hours on an orbital shaker. After two washes, 100 μL of biotinylated detector antibody was added to the heads and they were incubated for an additional hour, followed by two more washes and the addition of 100 μL streptavidin-RPE for 30 minutes. After a final two washes, beads were suspended in 125 μL wash solution and inserted into the XY platform of a Luminex MAGPIX Instrument (EMD Millipore, Billerica, Mass. USA). The assay protocol was designed using xPONENT software and samples were run at 100 events/bead region.
Multiplex Bead ELISA. Serum cytokines were analyzed 5 hr after intratumoral injection of liposomes using a mouse cytokine magnetic 10-plex panel kit (Invitrogen, Carlsbad, Calif. USA) for the Luminex® platform. Following retro-orbital eye bleed, plasma was collected by centrifugation at 1500×g for 10 min at 4° C. and stored at −80° C. […]

4T1 tumors [3] = assay: Immunofluorescence of tumor sections (cellular phenotype of tumor microenvironment); type: in vivo, BALB/c mice
Description: Tissues were quick frozen in OCT (Tissue-Tek) and stored at −80° C. Tissue sections (10 μm) were fixed with ice-cold acetone for 15 minutes at −20° C. and washed three times with IX PBS using trays followed by blocking with 5% fetal bovine serum in PBS. Fluorescence-labeled antibodies [e-flour 615 CD8 (clone 53-6.7; 1:50), e-flour 570 Ki-67 (clone solA15: 1:100; eBioscience, San Diego, Calif., USA); FITC F4/80 (MCA497A488; 1:100), Alexa Fluor 647 CD204 (MCA1322; 1:100, AbD Serotec, Raleigh N.C., USA); and 33D1 (1:100, BD Biosciences, San Jose. Calif.: 1:500 secondary anti-rat IgG Alexa Fluor® 546; Invitrogen) and iNOS (6/iNOS/NOS; 1:100 BD Biosciences, San Jose, Calif., USA; 1:500 anti-rabbit IgG-TRITC, Jackson Immunoresearch Labs, Inc. West Grove, Pa., USA)] were incubated with tissues overnight at 4° C. in the presence of 5% FBS. Slides were then washed three times with PBS and mounted with ProLong® Gold AntiFade with DAPI (Invitrogen). Images were taken using an A1 Nikon confocal microscope and the percent positive cells were determined by manual counting of four arbitrary regions in random samples.
Tissues were quick frozen in OCT (Tissue-Tek) and stored at −80° C. Tissue sections (10 μm) were fixed with ice-cold acetone for 15 min at −20° C. and washed three times with 1×PBS using trays followed by blocking with 5% fetal bovine serum in PBS. Fluorescently-labeled antibodies [eFluor® 615 CD8 (clone 53-6.7; 1:50), eFluor® 570 Ki-67 (clone solA15; 1:100; eBioscience, San Diego, Calif. USA); FITC F4/80 (MCA497A488; 1:100), Alexa-Fluor® 647 CD204 (MCA1322; 1:100, AbD Serotec, Raleigh N.C. USA); and 33D1 (1:100, BD Biosciences, San Jose, Calif.; 1:500 secondary anti-rat IgG Alexa-Fluor® 546: Invitrogen) and iNOS (6/iNOS/NOS; 1:100 BD Biosciences. San Jose. Calif., USA; 1:500 anti-rabbit IgG-TRITC. Jackson ImmunoResearch Laboratories. Inc., West Grove, Pa. USA)] were incubated with tissues overnight at 4° C. in the presence of 5% FBS. Slides were then washed three times with PBS and mounted with ProLong® Gold AntiFade® with DAPI (Invitrogen). Images were obtained using a confocal microscope (A1 Nikon), and the percent-positive cells were determined by manual counting of four arbitrary regions in random samples.

4T1 tumor [4] = assay: Immune phenotyping of tumor immunocytes by flow; type: in vivo, murine; conditions: 24 hours after treatment, preliminary
4T1 tumor [5] = assay: V-sense 19F MRI / confocal tracking of macrophage infiltration into tumor; type: in vivo, mice; conditions: after IL-12 intratumoral injection, tumors extracted 24 hours post imaging
Source text: Macrophage accumulation has been documented to contribute to cancer progression through suppression of the immune response and promotion of tumor vascularization (Mielgo et al., 2013). V-sense is a perfluorocarbon emulsion that is taken up by monocytes and macrophages, allowing for in-vivo detection through ^19F MRI. Ahrens, et al. (2011) successfully quantified V-sense in inflamed tissues of the central nervous system in an ex-vivo model of allergic encephalomyelitis, which they correlated with immunohistochemistry to confirm co-localization of V-sense emulsion droplets and macrophages. Hitchens et al. (2011) detected perfluorocarbon-labeled macrophages in a model of cardiac allograft rejection, which was confirmed via immunohistochemistry and histology. V-sense was used to study the impact of IL-12 on macrophage infiltration into the tumor (FIG. 8). […] Confocal images in FIG. 8B show V-sense (red) uptake by Celltracker™ Green RAW cells.

| Molecule | cell death in tumor (TUNEL staining) (4T1 tumors [1]) | cell death (propidium iodide uptake) (4T1 breast cancer cells) [%] | tumor growth (caliper measurements) [2] | serum IFN-γ (serum cytokines) | CD8+ (cytolytic) T cells in the tumor (change) (4T1 tumors [3]; mouse, in vivo) | F4/80+ macrophages in the tumor (change) (4T1 tumors [3]; mouse, in vivo) | iNOS in tumors (change) (4T1 tumors [3]; mouse, in vivo) | increase in iNOS (nitric oxide synthase) expression in the tumor above basal levels (4T1 tumors [3]; mouse, in vivo) [fold] | 33D1+ dendritic cells in the tumor (change) (4T1 tumors [3]; tumor sections, immunofluorescence) | CD4+ T cells in the tumor (4T1 tumor [4]) | CD8+ T cells in the tumor (4T1 tumor [4]) | MDSC in the tumor (4T1 tumor [4]) | V-sense signal distribution in tumor (macrophage infiltration) (4T1 tumor [5]) |
| --- | --- | --- | --- | --- | --- | --- | --- | --- | --- | --- | --- | --- | --- |
| monophosphoryl lipid A [free MPL] | Minimal cell death | 16 | did not slow tumor growth |  |  |  |  |  |  |  |  |  |  |
| B1 |  |  |  | increase | increased | increased | enhancing production | 3 | increased | increases | increases | decreases | strong penetration of V-sense signal into tumor tissue |
